Test results reported in US20050100540A1, “Platelet-activating factor acetylhydrolase” (priority 1993, published 2005).

B1: V279F: PAF-AH with phenylalanine for valine at position 279, mutation of PAF-AH deficient individuals, expressed in E. coli (protein)
chain: MVPPKLHVLFCLCGCLAVVYPFDWQYINPVAHMKSSAWVNKIQVLMAAASFGQTKIPRGNGPYSVGCTDLMFDHTNKGTFLRLYYPSQDNDRLDTLWIPNKEYFWGLSKFLGTHWLMGNILRLLFGSMTTPANWNSPLRPGEKYPLVVFSHGLGAFRTLYSAIGIDLASHGFIVAAVEHRDRSASATYYFKDQSAAEIGDKSWLYLRTLKQEEETHIRNEQVRQRAKECSQALSLILDIDHGKPVKNALDLKFDMEQLKDSIDREKIAVIGHSFGGATFIQTLSEDQRFRCGIALDAWMFPLGDEVYSRIPQPLFFINSEYFQYPANIIKMKKCYSPDKERKMITIRGSVHQNFADFTFATGKIIGHMLKLKGDIDSNVAIDLSNKASLAFLQKHLGLHKDFDQWDCLIEGDDENLIPGTNINTTNQHIMLQNSSGIEKYN
B2: D338A: PAF-AH amino acid substitution product expressed in E. coli (protein)
chain: MVPPKLHVLFCLCGCLAVVYPFDWQYINPVAHMKSSAWVNKIQVLMAAASFGQTKIPRGNGPYSVGCTDLMFDHTNKGTFLRLYYPSQDNDRLDTLWIPNKEYFWGLSKFLGTHWLMGNILRLLFGSMTTPANWNSPLRPGEKYPLVVFSHGLGAFRTLYSAIGIDLASHGFIVAAVEHRDRSASATYYFKDQSAAEIGDKSWLYLRTLKQEEETHIRNEQVRQRAKECSQALSLILDIDHGKPVKNALDLKFDMEQLKDSIDREKIAVIGHSFGGATVIQTLSEDQRFRCGIALDAWMFPLGDEVYSRIPQPLFFINSEYFQYPANIIKMKKCYSPAKERKMITIRGSVHQNFADFTFATGKIIGHMLKLKGDIDSNVAIDLSNKASLAFLQKHLGLHKDFDQWDCLIEGDDENLIPGTNINTTNQHIMLQNSSGIEKYN
B3: C67S: PAF-AH cysteine to serine mutant expressed in E. coli (protein)
chain: MVPPKLHVLFCLCGCLAVVYPFDWQYINPVAHMKSSAWVNKIQVLMAAASFGQTKIPRGNGPYSVGSTDLMFDHTNKGTFLRLYYPSQDNDRLDTLWIPNKEYFWGLSKFLGTHWLMGNILRLLFGSMTTPANWNSPLRPGEKYPLVVFSHGLGAFRTLYSAIGIDLASHGFIVAAVEHRDRSASATYYFKDQSAAEIGDKSWLYLRTLKQEEETHIRNEQVRQRAKECSQALSLILDIDHGKPVKNALDLKFDMEQLKDSIDREKIAVIGHSFGGATVIQTLSEDQRFRCGIALDAWMFPLGDEVYSRIPQPLFFINSEYFQYPANIIKMKKCYSPDKERKMITIRGSVHQNFADFTFATGKIIGHMLKLKGDIDSNVAIDLSNKASLAFLQKHLGLHKDFDQWDCLIEGDDENLIPGTNINTTNQHIMLQNSSGIEKYN
B4: C229S: PAF-AH cysteine to serine mutant expressed in E. coli (protein)
chain: MVPPKLHVLFCLCGCLAVVYPFDWQYINPVAHMKSSAWVNKIQVLMAAASFGQTKIPRGNGPYSVGCTDLMFDHTNKGTFLRLYYPSQDNDRLDTLWIPNKEYFWGLSKFLGTHWLMGNILRLLFGSMTTPANWNSPLRPGEKYPLVVFSHGLGAFRTLYSAIGIDLASHGFIVAAVEHRDRSASATYYFKDQSAAEIGDKSWLYLRTLKQEEETHIRNEQVRQRAKESSQALSLILDIDHGKPVKNALDLKFDMEQLKDSIDREKIAVIGHSFGGATVIQTLSEDQRFRCGIALDAWMFPLGDEVYSRIPQPLFFINSEYFQYPANIIKMKKCYSPDKERKMITIRGSVHQNFADFTFATGKIIGHMLKLKGDIDSNVAIDLSNKASLAFLQKHLGLHKDFDQWDCLIEGDDENLIPGTNINTTNQHIMLQNSSGIEKYN
B5: C334S: PAF-AH cysteine to serine mutant expressed in E. coli (protein)
chain: MVPPKLHVLFCLCGCLAVVYPFDWQYINPVAHMKSSAWVNKIQVLMAAASFGQTKIPRGNGPYSVGCTDLMFDHTNKGTFLRLYYPSQDNDRLDTLWIPNKEYFWGLSKFLGTHWLMGNILRLLFGSMTTPANWNSPLRPGEKYPLVVFSHGLGAFRTLYSAIGIDLASHGFIVAAVEHRDRSASATYYFKDQSAAEIGDKSWLYLRTLKQEEETHIRNEQVRQRAKECSQALSLILDIDHGKPVKNALDLKFDMEQLKDSIDREKIAVIGHSFGGATVIQTLSEDQRFRCGIALDAWMFPLGDEVYSRIPQPLFFINSEYFQYPANIIKMKKSYSPDKERKMITIRGSVHQNFADFTFATGKIIGHMLKLKGDIDSNVAIDLSNKASLAFLQKHLGLHKDFDQWDCLIEGDDENLIPGTNINTTNQHIMLQNSSGIEKYN
B6: C291S: PAF-AH cysteine to serine mutant expressed in E. coli (protein)
chain: MVPPKLHVLFCLCGCLAVVYPFDWQYINPVAHMKSSAWVNKIQVLMAAASFGQTKIPRGNGPYSVGCTDLMFDHTNKGTFLRLYYPSQDNDRLDTLWIPNKEYFWGLSKFLGTHWLMGNILRLLFGSMTTPANWNSPLRPGEKYPLVVFSHGLGAFRTLYSAIGIDLASHGFIVAAVEHRDRSASATYYFKDQSAAEIGDKSWLYLRTLKQEEETHIRNEQVRQRAKECSQALSLILDIDHGKPVKNALDLKFDMEQLKDSIDREKIAVIGHSFGGATVIQTLSEDQRFRSGIALDAWMFPLGDEVYSRIPQPLFFINSEYFQYPANIIKMKKCYSPDKERKMITIRGSVHQNFADFTFATGKIIGHMLKLKGDIDSNVAIDLSNKASLAFLQKHLGLHKDFDQWDCLIEGDDENLIPGTNINTTNQHIMLQNSSGIEKYN
B7: D304A: PAF-AH amino acid substitution product expressed in E. coli (protein)
chain: MVPPKLHVLFCLCGCLAVVYPFDWQYINPVAHMKSSAWVNKIQVLMAAASFGQTKIPRGNGPYSVGCTDLMFDHTNKGTFLRLYYPSQDNDRLDTLWIPNKEYFWGLSKFLGTHWLMGNILRLLFGSMTTPANWNSPLRPGEKYPLVVFSHGLGAFRTLYSAIGIDLASHGFIVAAVEHRDRSASATYYFKDQSAAEIGDKSWLYLRTLKQEEETHIRNEQVRQRAKECSQALSLILDIDHGKPVKNALDLKFDMEQLKDSIDREKIAVIGHSFGGATVIQTLSEDQRFRCGIALDAWMFPLGAEVYSRIPQPLFFINSEYFQYPANIIKMKKCYSPDKERKMITIRGSVHQNFADFTFATGKIIGHMLKLKGDIDSNVAIDLSNKASLAFLQKHLGLHKDFDQWDCLIEGDDENLIPGTNINTTNQHIMLQNSSGIEKYN
B8: H351A: PAF-AH amino acid substitution product expressed in E. coli (protein)
chain: MVPPKLHVLFCLCGCLAVVYPFDWQYINPVAHMKSSAWVNKIQVLMAAASFGQTKIPRGNGPYSVGCTDLMFDHTNKGTFLRLYYPSQDNDRLDTLWIPNKEYFWGLSKFLGTHWLMGNILRLLFGSMTTPANWNSPLRPGEKYPLVVFSHGLGAFRTLYSAIGIDLASHGFIVAAVEHRDRSASATYYFKDQSAAEIGDKSWLYLRTLKQEEETHIRNEQVRQRAKECSQALSLILDIDHGKPVKNALDLKFDMEQLKDSIDREKIAVIGHSFGGATVIQTLSEDQRFRCGIALDAWMFPLGDEVYSRIPQPLFFINSEYFQYPANIIKMKKCYSPDKERKMITIRGSVAQNFADFTFATGKIIGHMLKLKGDIDSNVAIDLSNKASLAFLQKHLGLHKDFDQWDCLIEGDDENLIPGTNINTTNQHIMLQNSSGIEKYN
B9: H395A, H399A: PAF-AH double amino acid substitution product expressed in E. coli (protein)
chain: MVPPKLHVLFCLCGCLAVVYPFDWQYINPVAHMKSSAWVNKIQVLMAAASFGQTKIPRGNGPYSVGCTDLMFDHTNKGTFLRLYYPSQDNDRLDTLWIPNKEYFWGLSKFLGTHWLMGNILRLLFGSMTTPANWNSPLRPGEKYPLVVFSHGLGAFRTLYSAIGIDLASHGFIVAAVEHRDRSASATYYFKDQSAAEIGDKSWLYLRTLKQEEETHIRNEQVRQRAKECSQALSLILDIDHGKPVKNALDLKFDMEQLKDSIDREKIAVIGHSFGGATVIQTLSEDQRFRCGIALDAWMFPLGDEVYSRIPQPLFFINSEYFQYPANIIKMKKCYSPDKERKMITIRGSVHQNFADFTFATGKIIGHMLKLKGDIDSNVAIDLSNKASLAFLQKALGLAKDFDQWDCLIEGDDENLIPGTNINTTNQHIMLQNSSGIEKYN

Test: PAF-AH activity of amino acid substitution products expressed in E. coli
Assay type: biochemical
Settings: control construct lacking the mutation fully active
From the text: By site-directed mutagenesis and PCR, individual codons of the human PAF-AH coding sequence were modified to encode alanine residues and were expressed in E. coli. […] The distances between active site residues is similar for PAF-AH (Ser to Asp, 23 amino acids; Ser to His, 78 amino acids) and other lipases. […] Cysteines are often critical for the functional integrity of proteins because of their capacity to form disulfide bonds. The plasma PAF-AH enzyme contains five cysteines. To determine whether any of the five is critical for enzyme actvity, each cysteine was mutated individually to a serine and the resulting mutants were expressed in E. coli. As shown below in Table 8, a significant but not total loss of PAF-AH activity resulted from the conversion of either Cys229, r Cys291 to serine. Therefore, these cysteines appear to be necessary for full PAF-AH activity. Other point mutations had little or no effect on PAF-AH catalytic activity. In Table 8, “++++” represent wild type PAF-AH activity of about 40-60 U/ml/OD600, “+++” represents about 20-40 U/ml/OD600 activity, “++” represents about 10-20 U/ml/OD600 activity, “+” represents 1-10 U/ml/OD600 activity, and “−” indicates <1 U/ml/OD600 activity.
To test whether this mutation crippled the enzyme, an E. coli expression construct containing the mutation was generated by methods similar to that described in Example 10. […] This amino acid substitution presumably results in a structural modification which causes the observed deficiency of activity and lack of immunoreactivity with the PAF-AH antibodies of the invention.

Molecule | PAF-AH activity of E. coli expression construct containing the mutation
B1 | no PAF-AH activity

Same assay, conditions: point mutants expressed in E. coli

Molecule | PAF-AH activity
B2 | ++++ (“++++” represent wild type PAF-AH activity of about 40-60 U/ml/OD600)
B3 | +++ (“+++” represents about 20-40 U/ml/OD600 activity)
B4 | + (“+” represents 1-10 U/ml/OD600 activity)
B5 | ++++ (“++++” represent wild type PAF-AH activity of about 40-60 U/ml/OD600)
B6 | + (“+” represents 1-10 U/ml/OD600 activity)
B7 | ++++ (“++++” represent wild type PAF-AH activity of about 40-60 U/ml/OD600)
B8 | − (“−” indicates <1 U/ml/OD600 activity)
B9 | ++++ (“++++” represent wild type PAF-AH activity of about 40-60 U/ml/OD600)
